From doi:10.1101/2021.11.29.470362 (bioRxiv, 2021)

B1: IgG 15033 (antibody, V domains shown)
VH: EVQLVESGGGLVQPGGSLRLSCAASGFDLGGYSMHWVRQAPGKGLEWVAGIYASGGATAYADSVKGRFTISADTSKNTAYLQMNSLRAEDTAVYYCARSYYYGGFGMDYWGQGTLVTVSS
VL: DIQMTQSPSSLSASVGDRVTITCRASQSVSSAVAWYQQKPGKAPKLLIYSASDLYSGVPSRFSGSRSGTDFTLTISSLQPEDFATYYCQQSYRYPITFGQGTKVEIK
B2: peptide-IgG 33^LN1 (peptide N1 fused to the N-terminus of the LC of IgG 15033) (antibody, V domains shown)
VH: EVQLVESGGGLVQPGGSLRLSCAASGFDLGGYSMHWVRQAPGKGLEWVAGIYASGGATAYADSVKGRFTISADTSKNTAYLQMNSLRAEDTAVYYCARSYYYGGFGMDYWGQGTLVTVSS
VL: DIQMTQSPSSLSASVGDRVTITCRASQSVSSAVAWYQQKPGKAPKLLIYSASDLYSGVPSRFSGSRSGTDFTLTISSLQPEDFATYYCQQSYRYPITFGQGTKVEIK
B3: peptide-IgG 33^HR1 (peptide R1 fused to the N-terminus of the HC of IgG 15033) (antibody, V domains shown)
VH: EVQLVESGGGLVQPGGSLRLSCAASGFDLGGYSMHWVRQAPGKGLEWVAGIYASGGATAYADSVKGRFTISADTSKNTAYLQMNSLRAEDTAVYYCARSYYYGGFGMDYWGQGTLVTVSS
VL: DIQMTQSPSSLSASVGDRVTITCRASQSVSSAVAWYQQKPGKAPKLLIYSASDLYSGVPSRFSGSRSGTDFTLTISSLQPEDFATYYCQQSYRYPITFGQGTKVEIK

Biological target: SARS-CoV-2 S-protein extracellular domain (ECD) (SARS-CoV-2, Wuhan-Hu-1 (ancestral), biotin, site-specific (BirA reaction) on the AviTag)
Assay: BLI

Binder | Kd [nM]
B1 | 0.1
B2 | < 0.001
B3 | < 0.001
